According to PMC11730744:

Legend:
Orai1β-eGFP [1] = molecular target: Orai1β-eGFP (UniProt Q96D31); experiment: FRET or BRET; confocal FRET in living WT HEK293 cells co-expressing Orai1 variant-eGFP and STIM-mCherry (CMV promoter); resting (control) cells, medium with 1.8 mM Ca2+; whole cell averages
Orai1β-eGFP [2] = molecular target: Orai1β-eGFP (UniProt Q96D31); experiment: FRET or BRET; confocal FRET in living WT HEK293 cells co-expressing Orai1 variant-eGFP and STIM-mCherry (CMV promoter); stimulated with 2 µM thapsigargin for 1 min, 1.8 mM extracellular Ca2+; whole cell averages

Chain of UniProt Q96D31 (Q96D31 whole entry): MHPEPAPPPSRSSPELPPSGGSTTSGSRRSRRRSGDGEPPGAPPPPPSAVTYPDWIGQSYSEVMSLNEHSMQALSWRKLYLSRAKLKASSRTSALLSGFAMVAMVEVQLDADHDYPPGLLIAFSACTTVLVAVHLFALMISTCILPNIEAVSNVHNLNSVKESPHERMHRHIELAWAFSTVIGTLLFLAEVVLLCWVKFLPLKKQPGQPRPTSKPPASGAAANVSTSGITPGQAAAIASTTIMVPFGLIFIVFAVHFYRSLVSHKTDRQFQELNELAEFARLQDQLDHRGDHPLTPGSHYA

## STIM2-mCherry (from UniProt Q9P246 15-746) (natural protein)
Orai1β-eGFP [1]
  mean nFRET (resting cells): 0.074
Orai1β-eGFP [2]
  mean nFRET (2 µM TG, 1 min): 0.114
